Results published in publication PMC2849673 (Biochemistry, 2010).

Molecular target: the molecule itself
Assay: crystal structure

B1: E-2-(acetamidomethylene)succinate (E-2AMS) hydrolase (enzyme, Mesorhizobium loti MAFF303099, UniProt Q988D4 1-278, looked up)
chain: MDMAADIASDHFISRRVDIGRITLNVREKGSGPLMLFFHGITSNSAVFEPLMIRLSDRFTTIAVDQRGHGLSDKPETGYEANDYADDIAGLIRTLARGHAILVGHSLGARNSVTAAAKYPDLVRSVVAIDFTPYIETEALDALEARVNAGSQLFEDIKAVEAYLAGRYPNIPADAIRIRAESGYQPVDGGLRPLASSAAMAQTARGLRSDLVPAYRDVTKPVLIVRGESSKLVSAAALAKTSRLRPDLPVVVVPGADHYVNEVSPEITLKAITNFIDA
  stoichiometry N: 2
